This note sets out measurements from US20190336574A1 (TRUSTEES OF PRINCETON UNIVERSITY, published 2019).

Assay [1] addresses human AGO2 (ectopically expressed in HEK293T cells) (human, UniProt Q9UKV8 1-859). In words: anti-Myc co-IP from HEK293T lysate (HA-SND1 and FLAG-AGO2 co-expressed), western blot. An excerpt: Two putative nuclear localization signals are residues 432-451 for NLS2 and residues 561-580 for NLS3. […] (FIG. 7B) Pulldown of His6-SND1ΔC by GST-tagged MTDH fragments with indicated boundaries. The bound proteins were examined by SDS-PAGE and visualized by Coomassie blue staining. […] For (FIG. 7B) and (FIG. 7C), 1/10 of the His6-SND1ΔC input was shown, and GST alone was used as a negative control. Representative results of 3 independent experiments are shown. (FIG. 7D, FIG. 7E) Lysates from HEK293T cells expressing the indicated ectopic human SND1, AGO2 or MTDH were immunoprecipitated with anti-Myc and immunoblotted with the indicated antibodies.
Immunoprecipitation and western blot For immunoprecipitation (IP) experiments, cultured cells were washed in cold PBS and lysed in lysis buffer (20 mM Tris pH 7.4, 0.15 M NaCl, 1 mM EDTA, 1 mM EGTA, 1% Tx-100, 0.0025 M Na2P2O7, 1 mM α-glycerolphosphate, 1 mM Na3VO4, and 1 mM NaF) with an EDTA-free protease inhibitor mixture (Roche Applied Science) and PMSF. Cell lysates were then incubated on ice for 10 min, centrifuged, and precleared by incubating with protein A/G beads (Santa Cruz Biotechnology) for 1 h at 4° C. For IP bead preparation, 30 μl of protein A/G beads were incubated with 5 μg of antibodies for 2 h at 4° C. […]

For assay [2], the target named is T1, HA-SND1, full-length human, wild type (human, UniProt Q7KZF4 1-910).
T1 sequence: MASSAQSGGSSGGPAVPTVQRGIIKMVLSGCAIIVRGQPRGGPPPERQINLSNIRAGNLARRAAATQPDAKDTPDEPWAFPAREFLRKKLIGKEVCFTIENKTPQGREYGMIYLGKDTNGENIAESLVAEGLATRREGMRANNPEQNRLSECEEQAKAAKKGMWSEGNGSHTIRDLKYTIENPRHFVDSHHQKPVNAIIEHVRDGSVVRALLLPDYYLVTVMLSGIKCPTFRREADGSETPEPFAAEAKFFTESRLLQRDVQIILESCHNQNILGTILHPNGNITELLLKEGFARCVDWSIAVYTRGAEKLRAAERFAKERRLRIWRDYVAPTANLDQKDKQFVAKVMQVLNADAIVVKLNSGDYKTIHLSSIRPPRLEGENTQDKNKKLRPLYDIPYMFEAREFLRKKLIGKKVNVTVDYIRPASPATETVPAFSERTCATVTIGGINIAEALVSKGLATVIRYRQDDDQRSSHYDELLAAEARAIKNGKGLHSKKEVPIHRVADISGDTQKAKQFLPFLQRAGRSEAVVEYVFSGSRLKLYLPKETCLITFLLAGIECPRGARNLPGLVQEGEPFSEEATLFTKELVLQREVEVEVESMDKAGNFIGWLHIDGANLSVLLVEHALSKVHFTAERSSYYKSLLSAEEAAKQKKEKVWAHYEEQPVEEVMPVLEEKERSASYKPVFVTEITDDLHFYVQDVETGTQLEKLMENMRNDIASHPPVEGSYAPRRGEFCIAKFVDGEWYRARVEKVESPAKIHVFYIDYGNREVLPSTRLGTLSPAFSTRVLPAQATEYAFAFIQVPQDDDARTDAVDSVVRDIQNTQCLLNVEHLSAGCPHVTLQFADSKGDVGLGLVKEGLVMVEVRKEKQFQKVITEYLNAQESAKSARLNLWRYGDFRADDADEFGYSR
In words: cell-based or functional assay.

In assay [3] the target is T2, HA-SND1 F250A, full-length human (human, UniProt Q7KZF4 1-910).
T2 construct: Full-length, HA-tagged
T2 sequence: T1 sequence with F250A
Kind of assay: co-IP (anti-Myc) from HEK293T lysates, western blot.

Numbering of substitutions follows the chain as printed.

Chain of human AGO2 (ectopically expressed in HEK293T cells) (Q9UKV8 whole entry, the tested form may be a part): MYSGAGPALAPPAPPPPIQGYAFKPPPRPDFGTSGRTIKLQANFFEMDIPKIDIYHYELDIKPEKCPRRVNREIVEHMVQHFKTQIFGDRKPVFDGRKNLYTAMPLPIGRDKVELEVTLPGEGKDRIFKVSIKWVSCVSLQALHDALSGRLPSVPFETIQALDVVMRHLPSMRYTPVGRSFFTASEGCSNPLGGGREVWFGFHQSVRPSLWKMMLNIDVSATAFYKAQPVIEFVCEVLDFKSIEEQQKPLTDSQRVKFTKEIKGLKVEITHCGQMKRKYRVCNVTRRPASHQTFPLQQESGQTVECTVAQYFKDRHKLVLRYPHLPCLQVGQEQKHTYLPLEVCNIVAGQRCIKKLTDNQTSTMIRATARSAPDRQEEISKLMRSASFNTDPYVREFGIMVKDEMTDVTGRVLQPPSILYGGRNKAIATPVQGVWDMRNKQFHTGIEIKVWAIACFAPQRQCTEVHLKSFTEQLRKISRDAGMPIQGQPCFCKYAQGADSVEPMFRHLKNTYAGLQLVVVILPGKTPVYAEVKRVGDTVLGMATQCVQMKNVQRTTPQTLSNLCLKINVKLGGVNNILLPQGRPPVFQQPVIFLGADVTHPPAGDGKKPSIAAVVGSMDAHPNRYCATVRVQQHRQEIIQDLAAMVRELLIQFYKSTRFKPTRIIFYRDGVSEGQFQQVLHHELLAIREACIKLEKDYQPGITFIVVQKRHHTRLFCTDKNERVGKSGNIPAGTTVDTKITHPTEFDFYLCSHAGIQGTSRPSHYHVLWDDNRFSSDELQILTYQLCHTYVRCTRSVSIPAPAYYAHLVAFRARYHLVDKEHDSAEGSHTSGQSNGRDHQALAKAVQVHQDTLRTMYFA

B1: Myc-MTDH, full-length human, wild type (other)
chain: MAARSWQDELAQQAEEGSARLREMLSVGLGFLRTELGLDLGLEPKRYPGWVILVGTGALGLLLLFLLGYGWAAACAGSRKKRRSPPRKREEAAAVPAAAPDDLALLKNLRSEEQKKKNRKKLSEKPKPNGRTVEVAEGEAVRTPQSVTAKQPPEIDKKNEKSKKNKKKSKSDAKAVQNSSRHDGKEVDEGAWETKISHREKRQQRKRDKVLTDSGSLDSTIPGIENTITVTTEQLTTASFPVGSKKNKGDSHLNVQVSNFKSGKGDSTLQVSSGLNENLTVNGGGWNEKSVKLSSQISAGEEKWNSVSPASAGKRKAEPSAWSQDTGDANTNGKDWGRSWSDRSIFSGIGSTAEPVSQSTTSDYQWDVSRNQPYIDDEWSGLNGLSSADPNSDWNAPAEEWGNWVDEERASLLKSQEPIPDDQKVSDDDKEKGEGALPTGKSKKKKKKKKKQGEDNSTAQDTEELEKEIREDLPVNTSKTRPKQEKAFSLKTISTSDPAEVLVKNSQPIKTLPPATSTEPSVILSKSDSDKSSSQVPPILQETDKSKSNTKQNSVPPSQTKSETSWESPKQIKKKKKARRET
notes: Full-length, Myc-tagged; Expressed in HEK293T cells, tested in lysate; also called Myc-tagged MTDH; WT Myc-MTDH
Turning to B1, the binding result is recorded as “binds” in assay [1] and “no binding” in assay [3]. Besides, the “half-life of HA-SND1 in HEK293T cells at 45° C (heat shock)” value in assay [2] was over 3 h.
